Columns and labels:
[1] = target: HLA-B*40:01; assay: IEDB peptide-MHC binding, purified MHC/competitive/fluorescence; filed as Kd, often an IC50 or EC50 that approximates it; ≥ and ≤ were set here for values at or beyond the usual limits of such assays; settings: source organism: Vibrio parahaemolyticus AQ3810
[2] = target: HLA-A*30:02; assay: as above; settings: source organism: Vibrio parahaemolyticus AQ3810
[3] = target: HLA-A*01:01; assay: as above; settings: source organism: Vibrio parahaemolyticus AQ3810
[4] = target: HLA-A*11:01; assay: as above; settings: source organism: Vibrio parahaemolyticus AQ3810
[5] = target: HLA-B*27:05; assay: as above; settings: source organism: Vibrio parahaemolyticus AQ3810
[6] = target: HLA-B*14:02; assay: as above; settings: source organism: Vibrio parahaemolyticus AQ3810
[7] = target: HLA-B*44:02; assay: as above; settings: source organism: Vibrio parahaemolyticus AQ3810
[8] = target: HLA-A*66:01; assay: as above; settings: source organism: Vibrio parahaemolyticus AQ3810
[9] = target: HLA-B*08:01; assay: as above; settings: source organism: Vibrio parahaemolyticus AQ3810
[10] = target: HLA-B*58:01; assay: as above; settings: source organism: Vibrio parahaemolyticus AQ3810
[11] = target: HLA-A*30:01; assay: as above
[12] = target: HLA-B*07:02; assay: as above
[13] = target: HLA-B*53:01; assay: as above; settings: source organism: Vibrio parahaemolyticus AQ3810
[14] = target: HLA-A*24:03; assay: IEDB peptide-MHC binding, purified MHC/direct/fluorescence; filed as Kd, often an IC50 or EC50 that approximates it; ≥ and ≤ were set here for values at or beyond the usual limits of such assays; settings: source organism: Vibrio parahaemolyticus AQ3810
[15] = target: HLA-B*15:01; assay: as above; settings: source organism: Vibrio parahaemolyticus AQ3810
[16] = target: HLA-B*46:01; assay: as above; settings: source organism: Vibrio parahaemolyticus AQ3810
[17] = target: HLA-B*15:17; assay: as above; settings: source organism: Vibrio parahaemolyticus AQ3810
[18] = target: HLA-B*51:01; assay: as above; settings: source organism: Vibrio parahaemolyticus AQ3810
[19] = target: HLA-A*02:01; assay: as above; settings: source organism: Vibrio parahaemolyticus AQ3810
[20] = target: HLA-B*18:01; assay: as above; settings: source organism: Vibrio parahaemolyticus AQ3810
[21] = target: HLA-A*03:01; assay: as above; settings: source organism: Vibrio parahaemolyticus AQ3810
[22] = target: HLA-A*02:06; assay: as above; settings: source organism: Vibrio parahaemolyticus AQ3810
[23] = target: HLA-B*57:01; assay: as above; settings: source organism: Vibrio parahaemolyticus AQ3810
[24] = target: HLA-B*27:03; assay: as above; settings: source organism: Vibrio parahaemolyticus AQ3810
[25] = target: HLA-A*23:01; assay: as above; settings: source organism: Vibrio parahaemolyticus AQ3810
[26] = target: HLA-A*26:01; assay: as above; settings: source organism: Vibrio parahaemolyticus AQ3810
[27] = target: HLA-A*29:02; assay: as above; settings: source organism: Vibrio parahaemolyticus AQ3810
[28] = target: HLA-A*69:01; assay: as above; settings: source organism: Vibrio parahaemolyticus AQ3810
[29] = target: HLA-A*02:19; assay: as above; settings: source organism: Vibrio parahaemolyticus AQ3810
[30] = target: HLA-B*15:01; assay: IEDB peptide-MHC binding, purified MHC/competitive/fluorescence; filed as Kd, often an IC50 or EC50 that approximates it; ≥ and ≤ were set here for values at or beyond the usual limits of such assays; settings: source organism: Human immunodeficiency virus 1
[31] = target: HLA-B*08:03; assay: as above; settings: source organism: Human immunodeficiency virus 1
[32] = target: HLA-A*02:01; assay: as above; settings: source organism: Human immunodeficiency virus 1
[33] = target: HLA-A*26:02; assay: as above; settings: source organism: Human immunodeficiency virus 1
[34] = target: HLA-A*68:02; assay: as above; settings: source organism: Human immunodeficiency virus 1
[35] = target: HLA-B*39:01; assay: as above; settings: source organism: Human immunodeficiency virus 1
[36] = target: HLA-B*15:09; assay: as above; settings: source organism: Human immunodeficiency virus 1
[37] = target: HLA-A*02:03; assay: as above; settings: source organism: Human immunodeficiency virus 1
[38] = target: HLA-A*02:06; assay: as above; settings: source organism: Human immunodeficiency virus 1
[39] = target: HLA-B*08:02; assay: as above; settings: source organism: Human immunodeficiency virus 1
[40] = target: HLA-A*26:01; assay: as above; settings: source organism: Human immunodeficiency virus 1
[41] = source organism: Vibrio parahaemolyticus AQ3810
[42] = source organism: Human immunodeficiency virus 1

For HQFTSNPEV, the Kd [1] was 0.416 µM, the Kd [2] was no less than 5 µM and the Kd [3] was no less than 5 µM. It also gave a Kd [4] of no less than 5 µM, a Kd [5] of no less than 5 µM and a Kd [6] of no less than 5 µM. The Kd [7] was no less than 5 µM, the Kd [8] was no less than 5 µM and the Kd [9] was no less than 5 µM. It also gave a Kd [10] of no less than 5 µM, a Kd [11, 41] of no less than 5 µM and a Kd [12, 41] of no less than 5 µM. The Kd [13] was no less than 5 µM, the Kd [14] was no less than 20 µM and the Kd [15] was no less than 20 µM. The Kd [16] was no less than 20 µM, the Kd [17] was no less than 20 µM and the Kd [18] was no less than 20 µM. For the same sequence, the Kd [19] was 0.004 µM, the Kd [20] was no less than 20 µM and the Kd [21] was no less than 20 µM. The Kd [22] was 0.008 µM, the Kd [23] was no less than 20 µM and the Kd [24] was no less than 20 µM. The Kd [25] was no less than 20 µM, the Kd [26] was no less than 20 µM and the Kd [27] was no less than 20 µM. It also gave a Kd [28] of no less than 20 µM and a Kd [29] of no less than 20 µM.
EIKDTEEAL was tested, and the Kd [30] was no less than 20 µM, the Kd [31] was no less than 20 µM and the Kd [32] was no less than 20 µM. The Kd [33] was no less than 20 µM, the Kd [34] was 0.183 µM and the Kd [35] was no less than 20 µM.
EVKSLFNTV showed a Kd [32] of no less than 20 µM, a Kd [36] of no less than 20 µM and a Kd [37] of no less than 20 µM. The Kd [38] was 0.0849 µM, the Kd [33] was 0.199 µM and the Kd [34] was 0.0004 µM. It also gave a Kd [39] of no less than 20 µM, a Kd [11, 42] of no less than 20 µM and a Kd [12, 42] of no less than 20 µM. It also gave a Kd [40] of no less than 20 µM.
